Experimental data from FireProtDB (doi:10.1021/bi061295h).

Settings: Equus caballus, pH 7.4, 25 °C, GdnHCl, reversible: Yes

Sequence of Cytochrome c wild type, P00004 (P00004 whole entry): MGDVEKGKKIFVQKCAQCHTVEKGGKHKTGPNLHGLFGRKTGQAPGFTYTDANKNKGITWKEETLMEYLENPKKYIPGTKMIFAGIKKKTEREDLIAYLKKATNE

## Cytochrome c wild type, P00004
CD, Tris 20 mM
  denaturant m value: 2.8 kcal/mol/M
  unfolding free energy: 7.4 kcal/mol
SUPREX, Sodium phosphate 20 mM
  denaturant m value: 3 kcal/mol/M
